Assay results: PMC10308326

Tests used:
[1] = test system: TALE tetM_1298 (14 bp recognition) (engineered TALE (AvrBs3 scaffold in pMAL-c2X, repeats replaced; Xanthomonas?)); assay: EMSA; conditions: EMSA: 12 mM Tris, 60 mM KCl, 2 mM DTT, 0.1 mg/mL BSA, 30% glycerol, 5 mM MgCl2, 0.2 mM EDTA, RT 1 h then 4 °C 30 min, TALE 0.03-200 nM; GO assay: TALE storage …
[2] = test system: TALE tetM_611 (16 bp recognition) (engineered TALE (AvrBs3 scaffold in pMAL-c2X, repeats replaced; Xanthomonas?)); assay: EMSA; conditions: EMSA: 12 mM Tris, 60 mM KCl, 2 mM DTT, 0.1 mg/mL BSA, 30% glycerol, 5 mM MgCl2, 0.2 mM EDTA, RT 1 h then 4 °C 30 min, TALE 0.03-200 nM; GO assay: TALE storage …

Sequence | Kd [1] [nM] | Kd [2] [nM]
GCGCCTTTCTGGGCTTCGCG / TTTTTTTTTTTTTTTCGCGAAGCCCAGAAAGGCGC [tetM_1298 EMSA oligo] | 1.2 | 
GCGTGTTCTCTGTTCCCTCGCG / TTTTTTTTTTTTTTTCGCGAGGGAACAGAGAACACGC [tetM_611 EMSA oligo] |  | 4.6
